Several values for one entry are separate records, joined by “and”; a condition that tells them apart may be missing. Equal entries are not always repeated.
Conditions: Aspergillus oryzae (strain ATCC 42149 / RIB 40), Thermal, DSC, reversible: yes, whole UniProt chain shown

B1: Guanyl-specific ribonuclease T1 wild type, P00651 (protein)
chain: MMYSKLLTLTTLLLPTALALPSLVERACDYTCGSNCYSSSDVSTAQAAGYQLHEDGETVGSNSYPHKYNNYEGFDFSVSSPYYEWPILSSGDVYSGGSPGADRVVFNENNQLAGVITHTGASGNNFVECT
- Tm (pH 2, glycine 50 mM): 34.9 °C
- heat capacity change of unfolding (pH 2, glycine 50 mM): 1.33 kcal/mol/K
- unfolding enthalpy (calorimetric) (pH 2, glycine 50 mM): 62.1 kcal/mol
- unfolding enthalpy (van 't Hoff) (pH 2, glycine 50 mM): 78.9 kcal/mol
- Tm (pH 2.4, glycine 50 mM): 41.4 °C
- heat capacity change of unfolding (pH 2.4, glycine 50 mM): 0.53 kcal/mol/K
- unfolding enthalpy (calorimetric) (pH 2.4, glycine 50 mM): 67.5 kcal/mol
- unfolding enthalpy (van 't Hoff) (pH 2.4, glycine 50 mM): 87.3 kcal/mol
- Tm (pH 2.5, glycine 50 mM): 45.8 °C
- heat capacity change of unfolding (pH 2.5, glycine 50 mM): 0.7 kcal/mol/K
- unfolding enthalpy (calorimetric) (pH 2.5, glycine 50 mM): 82.5 kcal/mol
- unfolding enthalpy (van 't Hoff) (pH 2.5, glycine 50 mM): 90.4 kcal/mol
- Tm (pH 2.75, glycine 50 mM): 48.5 °C
- heat capacity change of unfolding (pH 2.75, glycine 50 mM): 0.04 kcal/mol/K
- unfolding enthalpy (calorimetric) (pH 2.75, glycine 50 mM): 83.8 kcal/mol
- unfolding enthalpy (van 't Hoff) (pH 2.75, glycine 50 mM): 95.4 kcal/mol
- Tm (pH 2.8, Citric acid 50 mM): 48 °C
- heat capacity change of unfolding (pH 2.8, Citric acid 50 mM): 0.94 kcal/mol/K
- unfolding enthalpy (calorimetric) (pH 2.8, Citric acid 50 mM): 76.3 kcal/mol
- unfolding enthalpy (van 't Hoff) (pH 2.8, Citric acid 50 mM): 93.4 kcal/mol
- Tm (pH 3, Citric acid 50 mM): 50.5 °C
- heat capacity change of unfolding (pH 3, Citric acid 50 mM): 0.96 kcal/mol/K
- unfolding enthalpy (calorimetric) (pH 3, Citric acid 50 mM): 86.9 kcal/mol
- unfolding enthalpy (van 't Hoff) (pH 3, Citric acid 50 mM): 101 kcal/mol
- Tm (pH 3.5, Citric acid 50 mM): 56.5 °C
- heat capacity change of unfolding (pH 3.5, Citric acid 50 mM): 1.08 kcal/mol/K
- unfolding enthalpy (calorimetric) (pH 3.5, Citric acid 50 mM): 94.8 kcal/mol
- unfolding enthalpy (van 't Hoff) (pH 3.5, Citric acid 50 mM): 104 kcal/mol
- Tm (pH 3.7, Citric acid 50 mM): 58.3 °C
- heat capacity change of unfolding (pH 3.7, Citric acid 50 mM): 1.65 kcal/mol/K
- unfolding enthalpy (calorimetric) (pH 3.7, Citric acid 50 mM): 98.1 kcal/mol
- unfolding enthalpy (van 't Hoff) (pH 3.7, Citric acid 50 mM): 105 kcal/mol
- Tm (pH 4.5, Citric acid 50 mM): 58.7 °C
- heat capacity change of unfolding (pH 4.5, Citric acid 50 mM): 1.58 kcal/mol/K
- unfolding enthalpy (calorimetric) (pH 4.5, Citric acid 50 mM): 96.6 kcal/mol
- unfolding enthalpy (van 't Hoff) (pH 4.5, Citric acid 50 mM): 101 kcal/mol
- Tm (pH 5, Citric acid 50 mM): 60.1 °C
- heat capacity change of unfolding (pH 5, Citric acid 50 mM): 0.91 kcal/mol/K
- unfolding enthalpy (calorimetric) (pH 5, Citric acid 50 mM): 101 kcal/mol
- unfolding enthalpy (van 't Hoff) (pH 5, Citric acid 50 mM): 105 kcal/mol
- Tm (pH 5.5, Citric acid 50 mM): 65.3 °C
- heat capacity change of unfolding (pH 5.5, Citric acid 50 mM): 1.26 kcal/mol/K
- unfolding enthalpy (calorimetric) (pH 5.5, Citric acid 50 mM): 109 kcal/mol
- unfolding enthalpy (van 't Hoff) (pH 5.5, Citric acid 50 mM): 123 kcal/mol
- Tm (pH 6, Citric acid 50 mM): 64.7 °C
- heat capacity change of unfolding (pH 6, Citric acid 50 mM): 1.92 kcal/mol/K and 1.88 kcal/mol/K
- unfolding enthalpy (calorimetric) (pH 6, Citric acid 50 mM): 114 kcal/mol
- unfolding enthalpy (van 't Hoff) (pH 6, Citric acid 50 mM): 122 kcal/mol
- Tm (pH 6.5, Citric acid 50 mM): 64.2 °C
- heat capacity change of unfolding (pH 6.5, Citric acid 50 mM): 1.33 kcal/mol/K
- unfolding enthalpy (calorimetric) (pH 6.5, Citric acid 50 mM): 115 kcal/mol
- unfolding enthalpy (van 't Hoff) (pH 6.5, Citric acid 50 mM): 124 kcal/mol

Source: FireProtDB (doi:10.1021/bi952198j)
